According to publication PMC5473807, “Distribution and kinetics of the Kv1.3-blocking peptide HsTX1[R14A] in experimental rats” (Scientific Reports, 2017):

Assays:
[1] = Stability of the 64Cu complex against EDTA; format: physicochemical; settings: 0.1 M aqueous EDTA solution, radio-TLC on iTLC-SA plates
Protocol: The radiolabelling yield and stability of ^64Cu-labelled peptide conjugate were monitored with radio-TLC (thin layer chromatography). Thin layer chromatograms were scanned by using a thin layer analyser (Rita Star, Raytest, Germany). The purity of the radiolabelled peptide was assayed using analytical RP-HPLC. Radio-HPLC was performed on a Knauer Smartline System fitted with an activity detector (Ramona Star, Raytest, Germany) using an Aqua C18 column (Phenomenex, 4.6 mm × 250 mm, 5 µm, 125 Å) with a gradient eluent of H2O + 0.05% TFA (A) and acetonitrile + 0.05% TFA (B); in 20 min 0–60% of B, 10 min 60–95% of B, 1 mL/min.
^64Cu-NOTA-HsTX1[R14A] was prepared by incubating ~1.2–24 nmol (5–100 µg) of NOTA-HsTX1[R14A]/100 µL (1 mg/mL H2O stock solution) with ^64CuCl2 (~35–55 MBq) dissolved in 0.2 mL of 0.1 M 2-(N-morpholino)ethansulfonic acid (MES)/NaOH buffer (pH 6.0) at 37 °C for 30 min. Formation of the ^64Cu^II complex was verified by radio-TLC on iTLC-SA plates (instant TLC medium impregnated with […], Agilent Technology) using H2O + 0.1% HCOOH as mobile phase (^64Cu(HCOO)2, R f = 0.4, ^64Cu-NOTA-peptide, R f = 0). The stability of the ^64Cu^II formed was assessed in the presence of 0.1 M EDTA solution. Radio-TLC was performed with iTLC-SA plates (Agilent Technology) using 0.1 M aqueous EDTA solution [(^64Cu]Cu-NOTA-peptide, R f = 0, ^64Cu-EDTA, R f = 0.9).

[2] = Metabolite analysis by radio-TLC; format: in vivo; settings: rat, i.v., one rat
Protocol: The analysis of [^64Cu]Cu-NOTA-HsTX1[R14A] degradation was analysed in one rat after single intravenous injection. The gas-anaesthetised (8% desflurane, 30% oxygen, air) rat was prepared on a heating bed for the blood sampling. A needle catheter was inserted in a tail vein and fixed for the injection of the radiotracer and supplementation of the withdrawn volume by E-153 (electrolyte infusion solution). A small incision on the right hind limb was made and a small superficial artery was exposed. A thin tube (polyethylene, 0.3 mm inner and 0.6 mm outer diameter) was inserted, moved to the femoral artery and fixed. Arterial blood samples were collected at 1, 3, 5, 10, 20, 30, 120 min p.i of the [^64Cu]Cu-NOTA-HsTX1[R14A]. After the end of experiment the anaesthetised animals were euthanised by infusion of KCl solution. For the differentiation of the activity distribution in the blood compartments (Fig. 3b) were blood samples centrifuged (3 min at 14,000 × g) to obtain the plasma (plasma total and blood cells in the precipitate). One kidney was homogenised with PBS (30% w/v) and then centrifuged as described for the blood samples. Urine was treated in analogy. All the supernatants from blood, kidney and urine samples were mixed with equal volume of MeCN to precipitate the protein fraction. The samples were again centrifuged (3 min at 14,000 × g), resulting in the precipitate the protein bound fraction (plasma proteins) and the supernatants (e.g. plasma water fraction) were analysed by radio-TLC with RP18 aluminium foil, MeCN/0.1% TFA mixed with H2O/0.1% TFA (v/v 1:1). The TLC plates were measured by radioluminography as described above. Aliquots of the whole blood samples and of all supernatants were measured for the ^64Cu activity concentration in a well counter.

[3] = Tolerability in the animal experiments; format: in vivo, rat; settings: rats, injections of up to 0.1 mg peptide/kg body weight, also anesthetised animals

CSCC[C@@H]1NC(=O)[C@@H]2CSSC[C@H](NC(=O)[C@H](CO)NC(=O)[C@H](C)NC(=O)COCCOCCNC(=O)CN3CCN(CC(=O)O)CCN(CC(=O)O)CC3)C(=O)N[C@@H](CCCNC(=N)N)C(=O)N[C@@H]([C@@H](C)O)C(=O)N3CCC[C@H]3C(=O)N[C@@H](CCCCN)C(=O)N[C@@H](CC(=O)O)C(=O)N[C@H]3CSSC[C@H](NC(=O)[C@H](CCCCN)NC(=O)[C@H](CCCNC(=N)N)NC(=O)[C@H](CC(N)=O)NC1=O)C(=O)N[C@@H](CCCCN)C(=O)N[C@H]1CSSC[C@H](NC(=O)[C@@H]4CCCN4C(=O)[C@H](CC(=O)O)NC(=O)[C@H](C)NC3=O)C(=O)N[C@@H](C)C(=O)N[C@@H](CCCCN)C(=O)N[C@@H](CCC(=O)O)C(=O)N[C@@H]([C@@H](C)O)C(=O)NCC(=O)N[C@@H](CSSC[C@@H](C(N)=O)NC(=O)[C@H](CCCNC(=N)N)NC(=O)[C@H](CC(N)=O)NC1=O)C(=O)N1CCC[C@H]1C(=O)N[C@@H](Cc1ccc(O)cc1)C(=O)NCC(=O)N[C@@H](CCCCN)C(=O)N2 [[^64Cu]Cu-NOTA-HsTX1[R14A], metal not drawn]
time for which the 64Cu(II) complex is stable with EDTA [1]: at least 24 h | plasma activity still present as original compound ([2]; arterial blood plasma, after 4 h): 85% | metabolic stability in arterial blood plasma ([2]; first 2 h): without detectable radioactive metabolic products | original compound in the kidneys ([2]; kidney extract, 4 h): 31% | original compound in the urine ([2]; urine, 4 h): 15% | toxic effects [3]: did not show toxic effects
